Reference: PMC2987821

Biological target: Gp41-HR1 (HIV-1)
Test: SPR

B1: D5 IgG (antibody, V domains shown)
VH: QVQLVQSGAEVRKPGASVKVSCKASGDTFSSYAISWVRQAPGQGLEWMGGIIPIFGTANYAQAFQGRVTITANESTSTAYMELSSLRSEDTAIYYCARDNPTLLGSDYWGAGTLVTVSS
VL: DIQMTQSPSTLSASIGDRVTITCRASEGIYHWLAWYQQKPGKAPKLLIYKASSLASGAPSRFSGSGSGTDFTLTISSLQPDDFATYYCQQYSNYPLTFGGGTKLEIK
Kd: 3.1 nM
koff: 0.00103 s⁻¹
kon: 335000 M⁻¹ s⁻¹
